Experimental findings from the PETadex activity labels (doi:10.3390/polym4010617) are described below.

Substrate in series [1]: PLA
Put plainly: Proxy for plastic degradation [HPLC-UV]. As to conditions: pH 7; 37 °C.

Substrate in another series: pNP-C2
As to the kind of experiment: Proxy for plastic degradation [Specific activity]. As to conditions: pH 7.

Substrate in the next series: pNPB
As to the kind of experiment: Proxy for plastic degradation [Specific activity]. As to conditions: pH 7.

Substrate in series [2]: PLA
As to the kind of experiment: Proxy for plastic degradation [Released monomer concentration (HPLC/LC-MS) (LA )]. As to conditions: pH 7.

Series [3] is described as follows: Proxy for plastic degradation [Released monomer concentration (HPLC/LC-MS) (BA)] (mmol/mol of enzyme). As to conditions: pH 7.
Series [4] in a line: Proxy for plastic degradation [Released monomer concentration (HPLC/LC-MS) (TA)] (mmol/mol of enzyme). Conditions: pH 7.
Substrate in series [5]: PET
The series is described as above. As to conditions: pH 7.

Series [6] can be described thus: Proxy for plastic degradation [Released monomer concentration (HPLC/LC-MS) (HEB)] (mmol/mol of enzyme). Conditions: pH 7.
Series [7] can be described thus: Proxy for plastic degradation [Released monomer concentration (HPLC/LC-MS) (MHET)] (mmol/mol of enzyme). Conditions: pH 7.
Substrate in series [8]: PET
The series is described as above. Conditions: pH 7.

B1: unnamed (protein)
chain: MANPYERGPNPTNSSIEALRGPFRVDEERVSRLQARGFGGGTIYYPTDNNTFGAVAISPGYTGTQSSISWLGERLASHGFVVMTIDTNTTLDQPDSRASQLDAALDYMVEDSSYSVRNRIDSSRLAAMGHSMGGGGTLRLAERRPDLQAAIPLTPWHTDKTWGSVRVPTLIIGAENDTIASVRSHSEPFYNSLPGSLDKAYLELDGASHFAPNLSNTTIAKYSISWLKRFVDDDTRYTQFLCPGPSTGWGSDVEEYRSTCPF
Turning to B1, the “Proxy for plastic degradation” value worked out at 14.5 µM with PLA [1]; 550 U/mg in the series with pNP-C2; 500 U/mg in the series with pNPB; 14.5 µM in the series with PLA [2]; 58 in [3]; 18 in [4]. The “Proxy for plastic degradation” value in the series with PET [5] was 21.5; in series [6] it was 53; in series [7], 35; in the series with PET [8] it was 19.8.
